What follows are substances tested on HEK293T (assay: median enrichment of reporter reads in eGFP-reduced (low/intermediate) vs eGFP-high sorted cells (eGFP-extension fusion abundance) (ratio); higher = stronger loss of eGFP-fusion protein abundance (more destabilising extension)).
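Note: lentiviral eGFP-IRES-mCherry reporter pool sorted by FACS 96 h post-transduction, gated on mCherry-high cells, Illumina read counts normalized per million, median across four biological replicates.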

Sequence of CASP8 (chain, as listed by the source): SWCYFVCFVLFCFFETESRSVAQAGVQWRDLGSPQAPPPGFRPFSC

Substance | median enrichment
QTLCALCVRPVPAS [USP10] | 7.74
SKILVLLNYLI [TIPARP] | 5.53
WGCSGNSHSAPIRAPCRGPSVVSD [TBC1D14] | 2.19
LAVGAHHLPDSQRENNLAKPIFDTGTFSSQFSLFSQKMI [C1orf105] | 12.7
RGRLNPPNINSHPSLHSCLPLFTFILRVQKFQVSFELYFVCQFHAYFSFIRES [CNTD1] | 5.36
YPGSFYGHE [ZNF700] | 0.482
GVSGGEERRADLGRALRTWPRARDSPGSSSPWQAQQHVPQIWKGLPLCQCLGGCHGCPHPLLSVCGVEEPTPASCQDHLGGHT [GPRC5C] | 1.27
CSDGGWSLSESSALPSPGDEGNSLCFAEKILWINTEAPATPEGWRLLSLPILQSGSKPSKTAPEHCFSWVQS [C3orf52] | 13.3
WHLFPPCLPLPLFWGHPFPPWLSPLKVSPPLGAFLEPCVSEWSPHSIVPRVCPQTLHLALLGRN [SNRPA] | 10.5
KIMRHTV [TBC1D32] | 6.86
WLYESFCHKVPKRRGMGRVPQHVVTA [DSN1] | 11
RRGEGRPAVDSLILGRSLGCAAISFCECANTKLSRAKL [SLC25A25] | 8.98
PWTWYTSMWSCWARGVLCAVNSVGSCSGVGARFLPPWAEGPFPLVLCPHPPPFSCSWASALPRASQVLLGREGNGEKGEASSV [KLHDC3] | 6.21
LHGPCMLINASSEM [TMEM205] | 5.79
YVAMVKVSVAAAAMASRRRCWDCFALEPASGCPLQWLCYCMDCILDFMCMSQ [DYNLL2] | 10.8
SSAYLGLPKCWDYRREPNAQPRGVVFRDISESEGETQD [APOC1] | 1.19
RQRRD [PVR] | 0.306
YQSVL [RNASE9] | 1.04
SVSGNHEGIWQ [MOAP1] | 0.522
PLLNLDFCPNPLPVTRSISLSLLSNGAWSTEASEAIALLAEVKRTLSPHLRLPCVEPASVCPSFHCSQCQTWAAAPRRLRPNQ [SLC18A3] | 5.19
RCCCHGGLGQRGERSVLEA [OBSCN] | 11.1
ESSTLLLQWVQKLLRPVVK [MYLK3] | 7
YIPNILGL [RASEF] | 10.1
GGAAAAWSLRPSRPPSAAPSAAVCVAWASFQLTHGLKNRCFI [TMEM18] | 5.44

Substance | median enrichment
GKSPVSQHRGAALHTCGETFPAGPRESDSKNNRCCFSRVM [HABP4] | 8.99
PTVRPQRGQDKPCPDAFDRQLCVLVDRCRNKEEMESAPEKLQIQARREVLRKDLQQLHIHINQHNTGWRPNSGVHKRRRDVVG [H6PD] | 5.25
VVVVVVVV [Val08] | 10.5
CASP8 | 22.5
ETSGFSSQTF [ELP5] | 0.462
KQIKLDEIYNYLIAQ [MDH1B] | 18.9
YNMTYSYSSLLSPLYSFFFNIFMTFKSLLYSLARKCTFFLLV [ADAMTS12] | 4.84
LPSESGGKTPPSLCILNH [UGT3A1] | 0.835
YNEK [PJVK] | 0.295
YEAPS [OR1L8] | 1.07
QCLWPSILISLMRILLALLSLVGICQAQCFNLKLILCFRCQSRYQQPFDPTTALYILVEDFHPCAWKRCSWYIVKK [TCEAL3] | 10.4
RCFRRLFFSSRSCHLIILH [COMMD10] | 7.76
LVSRPWGSCFPIPEFPCSPPPVVLPDLHLELSPPESPHRRPAMEPSPPGAPWGPSP [ALPG] | 10.3
KAAWPQYGPLFAGFSSSLEPPSVGGPPISPLKPALLFWGDPLLLSFPKHGVPWPAFFLCLWWGWGGLFLLAPSGGGGQVTRSG [JUP] | 4.75
YLVIHAFFPGQGSRVTRPPETSQEARALFK [SNX19] | 13.6
SIPHPGSSAPRAGGHLRSVISL [IP6K2] | 0.975
LFSTEIQNISLTALRCVC [NIPSNAP3B] | 6.41
KHGGFGS [AKAIN1] | 0.558
WSAVA [EFCAB2] | 0.771
ELLTAFPKALLQKRSMSVIITWLSNLFHSMEPWRRKTLSYFVTQPGIGLFGPTRFPSPEELPRPGDQC [GRM7] | 6.76
SGPPPAILSS [CYP4A22] | 0.549
RSLRAGPSAAGSCLNTSLDMARTHRDTGQDQPCLWRQDTTIWPMAVTSCRVQSQTGNHHLRQDLPASFTFLISRALPPILCLG [SLC22A13] | 6.14
SMLIP [ZMYND15] | 0.546
LRLQCLLRRKIKFTSSKVTLEDRALGMSFFF [OR2C3] | 4.08

Substance | median enrichment
WPSSLPPKPTTQC [KPNA7] | 0.282
RGGRWEPSFQ [OR6Q1] | 0.248
LQGPLDL [OR56A3] | 0.31
RQTSQSSQPGLHPPWLPPAHMAPSTGLQPGAREL [HOOK2] | 11.1
SPSASSRKNKKSRTWQVFSICCKYVY [FBXL13] | 8.34
SRHIQVSFHHFIYKGDQCHRRVPEEMRSQGLS [MPV17L] | 4.12
WGHRSEMRGLECGWAPGAMGGCGAGEIKSELLLPGVPTSSSGQSVHSQPDR [BCL2] | 5.52
WCWKRSKHWPLVSTLQPPQVPLWGDTGGPLAVTPCAWSDPRPLPPARFLLSPAWEDVSLSTSQRARGARGWTGQ [PPP2R1A] | 3.49
LGHRQESVWAGLFNMVFAVLPPWGPWSDNIVSLVRLSRCLIRTANGASPTPPRVRPPFHQRVSSQRPPASCPAAQEEKEGLNS [PDGFB] | 4.11
YPWALPCYPFSPLEVPNLLHPLPLL [PPRC1] | 3.39
WPLQQNSFVLCGAMPSLTPNRVSVILRTFYPQHL [CPNE3] | 16.4
RSCAAQSQTPAPTTYFCYTQEHFRKLSQLIFCFSSMSILSVSHFEDFFSLLYLCFSFFGFYFVVLSVIFNVPKICTCSIKNVV [HOOK3] | 3.09
YRTM [IAPP] | 0.785
LLMMFQKPK [TGIF2LX] | 8.04
VVV [Val03] | 0.518
QIKLAVRNAKSC [RBMX] | 6.47
WGQCLPAPPLASSSAPRVPSVDPIRPAMASYSKMV [ACO2] | 0.96
WMSMSEGKENFGHQNPAPSELKELIYFMKLILLCVCSWC [GALNT15] | 26.8
YEHLVKTRPSGPTMSAPSRGRDMACHSS [ITGB2] | 0.9
WVLIPTFPCDLGCRCSCCKMEANLTGVL [ADD2] | 6.13
KVKP [TRPC5] | 0.338
LWDNHKVWKLGLK [BCO2] | 4.23
LKKNPRKNKS [NME5] | 1.1
RKSNASRLSEA [VHLL] | 0.269

Substance | median enrichment
QVLSPNNFFLSEVKGLKISWK [ENOSF1] | 10.9
KTCIHFLQTI [BACH1] | 2.97
GFHSRGCCKQRDCHLELGWQGRAASFDSESSCPSPKPPPTP [SYT6] | 0.961
RASPAHCQGRRGPDQGPRGLRAPPLSPPQCLRGPEPPPVPAAPLPQGPAMPHPGLKFCKVLRGPEHVSATRGSGQHCVLRLVS [SLC29A4] | 8.55
LPSRSTATQVYLPLPSNPFPRAIFISPNKRAPRK [HRC] | 11.1
YHPGL [GORASP1] | 0.424
GGGGGGGG [Gly08] | 1.64
MMMMMMM [Met07] | 6.53
SALGWSQGGTTQAPWAPRERGGIRAGQPPGCRCQEQSQAQVAPAACPVPFPKAPLHIEGRKREFRQLHSPFTPNPVFYSPEKR [STARD8] | 3.27
RSRVFQVPGPWL [MYL4] | 1.67
LIFLI [MAP2] | 6.91
RTPNTIFAIQPQAMGTAFLPRGPGRPQRLLQARTLVHYTPCLGAEILQQKDAIFFVSFFSIFFSKESIFQYVECVSNAMKLKY [NFYC] | 15.8
CIYTAKKNYECMEFFKKKYNALLQRTLGKKPYVKVMTVK [ZNF140] | 22.2
YSCVVKINMRKLPCNLNLGFPCNRN [IL23R] | 22.3
SMALVALEWDPALTSPRANLGGAEGALGHRKQGKKGRSCGEMTLIFDCYPNLDL [NDRG2] | 7.41
YELWGAHTPQSS [IL17A] | 1.09
CCCCCCCCCC [Cys10] | 9.58
WATLSVGFFLEDSTLLPHVLSQLQS [CSTF1] | 4.6
LIA [ACAT2] | 1.03
RGQWLRGYVVQMLLLP [FILIP1] | 8.14
GMSFLDLH [LSM5] | 0.489
KICQDKGSEDWTCSDIGVLLPSS [MAPK1] | 2.3
SGFLKLSSKLLRLFK [FABP12] | 7.41
ELPGLGGLSGIAMLVAREKKSTANKTTQTKPSTA [FOXA1] | 1.47

Substance | median enrichment
YDLEFC [PQLC2L] | 0.999
YELNKNKIQV [CXorf66] | 0.339
RSHL [BBOX1] | 11.7
YMKLDI [ARF4] | 1.7
YKLGLCFLLVTEDWVAP [SOAT1] | 9.15
KKLRS [CRYGN] | 0.509
SRKFLRCCHLLEMRFVLCLNGLFFKKTKNQMKEHSWGFLFVCVCMCKLMSNCICRSVIVLYCVNYFHCGYFSR [U2SURP] | 5.89
YSQRGGQSQSQLLSCPLLPARALVLTPSCIPHLRSVY [SLC2A11] | 11.1
WLVAIFQHSSCIL [LVRN] | 13.3
YPYGE [PRKCH] | 0.563
RRPVPR [TBC1D24] | 1.51
LEPWGWGRGCQLHSGTLGRWASERLLTGSGASRCQAASGPLGCPGQACEEGLRWGRQGAPGSRDHR [RPUSD1] | 5.25
YRTGIHEQKAESQTCLS [CD5] | 0.587
WPSLRPTCTSGSKWVSSGSPARVLSECLCVCINICIPFGSIAAV [XPNPEP3] | 17
QTVEWLKLLSRRIYTSDLRRETLTPQWLHLL [HIST1H2BJ] | 10.5
PPTTPHQATPAASAFLGAERQPRPPVPSPPSHHRSSAPGRTVWPLPVPAMGSGWTPWAPPIAKPGRQLSLVPASGQPRVSPAS [CAPN1] | 6.04
RIQPKCQVRSEGIFH [ABCC4] | 1.49
WVEKKKKIKKQNKTHAPKK [NPIPB6] | 1.29
YKPQAPLADGRQGEKRRSSWTSETTVELRREAT [IGFL3] | 1.72
CLSTVLFS [SUDS3] | 5.55
LSGP [LCE1C] | 0.649
DDDDDDDDD [Asp09] | 0.213
SQFNLKFLISPTTIY [TSEN2] | 8.83
